{"source": "the Immune Epitope Database (IEDB)", "test_in_all_cases": "IEDB peptide-MHC binding, purified MHC/competitive/radioactivity; filed as Kd, often an IC50 or EC50 that approximates it; ≥ and ≤ were set here for values at or beyond the usual limits of such assays", "key": {"HLA-A*31:01": {"biological_target": "HLA-A*31:01"}, "HLA-A*68:01": {"biological_target": "HLA-A*68:01"}, "HLA-A*11:01": {"biological_target": "HLA-A*11:01"}, "HLA-A*33:01": {"biological_target": "HLA-A*33:01"}, "HLA-A*03:01": {"biological_target": "HLA-A*03:01"}, "[1]": {"details": "source organism: SARS coronavirus Tor2"}, "[2]": {"details": "source organism: Vaccinia virus WR"}, "[3]": {"details": "source organism: Mammarenavirus juninense"}, "[4]": {"details": "source organism: Dengue virus 3 Martinique/1243/1999"}, "[5]": {"details": "source organism: Dengue virus 2 Jamaica/1409/1983"}, "[6]": {"details": "source organism: Dengue virus 4 Philippines/H241/1956"}, "[7]": {"details": "source organism: Murray valley encephalitis virus (strain MVE-1-51)"}, "[8]": {"details": "source organism: Mammarenavirus guanaritoense"}}}
{"sequence": "NQLESKVSGK", "values": [{"measurement": "Kd", "setting": "HLA-A*31:01; [1]", "result": "≥ 42500", "unit": "nM"}, {"measurement": "Kd", "setting": "HLA-A*68:01; [1]", "result": 6960, "unit": "nM"}, {"measurement": "Kd", "setting": "HLA-A*11:01; [1]", "result": 14700, "unit": "nM"}, {"measurement": "Kd", "setting": "HLA-A*33:01; [1]", "result": "≥ 70000", "unit": "nM"}, {"measurement": "Kd", "setting": "HLA-A*03:01; [1]", "result": 9480, "unit": "nM"}]}
{"sequence": "NSYISNIIY", "values": [{"measurement": "Kd", "setting": "HLA-A*31:01; [2]", "result": "≥ 23700", "unit": "nM"}, {"measurement": "Kd", "setting": "HLA-A*68:01; [2]", "result": 597, "unit": "nM"}, {"measurement": "Kd", "setting": "HLA-A*11:01; [2]", "result": 2490, "unit": "nM"}, {"measurement": "Kd", "setting": "HLA-A*33:01; [2]", "result": 11700, "unit": "nM"}, {"measurement": "Kd", "setting": "HLA-A*03:01; [2]", "result": 7480, "unit": "nM"}]}
{"sequence": "NVISSKISY", "values": [{"measurement": "Kd", "setting": "HLA-A*31:01; [2]", "result": 4960, "unit": "nM"}, {"measurement": "Kd", "setting": "HLA-A*68:01; [2]", "result": 439, "unit": "nM"}, {"measurement": "Kd", "setting": "HLA-A*11:01; [2]", "result": 482, "unit": "nM"}, {"measurement": "Kd", "setting": "HLA-A*33:01; [2]", "result": 6450, "unit": "nM"}, {"measurement": "Kd", "setting": "HLA-A*03:01; [2]", "result": 651, "unit": "nM"}]}
{"sequence": "NYTKFWYVNH", "values": [{"measurement": "Kd", "setting": "HLA-A*31:01; [3]", "result": 1000, "unit": "nM"}, {"measurement": "Kd", "setting": "HLA-A*68:01; [3]", "result": 9630, "unit": "nM"}, {"measurement": "Kd", "setting": "HLA-A*11:01; [3]", "result": "≥ 56900", "unit": "nM"}, {"measurement": "Kd", "setting": "HLA-A*33:01; [3]", "result": 54.5, "unit": "nM"}, {"measurement": "Kd", "setting": "HLA-A*03:01; [3]", "result": "≥ 70000", "unit": "nM"}]}
{"sequence": "PLYIDISDVK", "values": [{"measurement": "Kd", "setting": "HLA-A*31:01; [2]", "result": 9500, "unit": "nM"}, {"measurement": "Kd", "setting": "HLA-A*68:01; [2]", "result": 1420, "unit": "nM"}, {"measurement": "Kd", "setting": "HLA-A*11:01; [2]", "result": 9170, "unit": "nM"}, {"measurement": "Kd", "setting": "HLA-A*33:01; [2]", "result": "≥ 56300", "unit": "nM"}, {"measurement": "Kd", "setting": "HLA-A*03:01; [2]", "result": 156, "unit": "nM"}]}
{"sequence": "PSTVKTNLY", "values": [{"measurement": "Kd", "setting": "HLA-A*31:01; [2]", "result": 6120, "unit": "nM"}, {"measurement": "Kd", "setting": "HLA-A*68:01; [2]", "result": 7980, "unit": "nM"}, {"measurement": "Kd", "setting": "HLA-A*11:01; [2]", "result": 6770, "unit": "nM"}, {"measurement": "Kd", "setting": "HLA-A*33:01; [2]", "result": 3680, "unit": "nM"}, {"measurement": "Kd", "setting": "HLA-A*03:01; [2]", "result": "≥ 40300", "unit": "nM"}]}
{"sequence": "QAIEPSGNNY", "values": [{"measurement": "Kd", "setting": "HLA-A*31:01; [2]", "result": 3440, "unit": "nM"}, {"measurement": "Kd", "setting": "HLA-A*68:01; [2]", "result": 692, "unit": "nM"}, {"measurement": "Kd", "setting": "HLA-A*11:01; [2]", "result": 4820, "unit": "nM"}, {"measurement": "Kd", "setting": "HLA-A*33:01; [2]", "result": "≥ 70000", "unit": "nM"}, {"measurement": "Kd", "setting": "HLA-A*03:01; [2]", "result": "≥ 70100", "unit": "nM"}]}
{"sequence": "QMAPVSAMVR", "values": [{"measurement": "Kd", "setting": "HLA-A*31:01; [1]", "result": 1020, "unit": "nM"}, {"measurement": "Kd", "setting": "HLA-A*68:01; [1]", "result": 157, "unit": "nM"}, {"measurement": "Kd", "setting": "HLA-A*11:01; [1]", "result": 1080, "unit": "nM"}, {"measurement": "Kd", "setting": "HLA-A*33:01; [1]", "result": 7320, "unit": "nM"}, {"measurement": "Kd", "setting": "HLA-A*03:01; [1]", "result": 527, "unit": "nM"}]}
{"sequence": "QMLTSGEYK", "values": [{"measurement": "Kd", "setting": "HLA-A*31:01; [2]", "result": 28.3, "unit": "nM"}, {"measurement": "Kd", "setting": "HLA-A*68:01; [2]", "result": 266, "unit": "nM"}, {"measurement": "Kd", "setting": "HLA-A*11:01; [2]", "result": 3.67, "unit": "nM"}, {"measurement": "Kd", "setting": "HLA-A*33:01; [2]", "result": 7280, "unit": "nM"}, {"measurement": "Kd", "setting": "HLA-A*03:01; [2]", "result": 6.95, "unit": "nM"}]}
{"sequence": "QQVVDADSK", "values": [{"measurement": "Kd", "setting": "HLA-A*31:01; [1]", "result": "≥ 77900", "unit": "nM"}, {"measurement": "Kd", "setting": "HLA-A*68:01; [1]", "result": "≥ 65800", "unit": "nM"}, {"measurement": "Kd", "setting": "HLA-A*11:01; [1]", "result": "≥ 26300", "unit": "nM"}, {"measurement": "Kd", "setting": "HLA-A*33:01; [1]", "result": "≥ 77700", "unit": "nM"}, {"measurement": "Kd", "setting": "HLA-A*03:01; [1]", "result": "≥ 28000", "unit": "nM"}]}
{"sequence": "QTCAGVIEY", "values": [{"measurement": "Kd", "setting": "HLA-A*31:01; [2]", "result": 18900, "unit": "nM"}, {"measurement": "Kd", "setting": "HLA-A*68:01; [2]", "result": 1760, "unit": "nM"}, {"measurement": "Kd", "setting": "HLA-A*11:01; [2]", "result": 134, "unit": "nM"}, {"measurement": "Kd", "setting": "HLA-A*33:01; [2]", "result": "≥ 77700", "unit": "nM"}, {"measurement": "Kd", "setting": "HLA-A*03:01; [2]", "result": 3200, "unit": "nM"}]}
{"sequence": "RLISMMGFK", "values": [{"measurement": "Kd", "setting": "HLA-A*31:01; [1]", "result": 104, "unit": "nM"}, {"measurement": "Kd", "setting": "HLA-A*68:01; [1]", "result": 716, "unit": "nM"}, {"measurement": "Kd", "setting": "HLA-A*11:01; [1]", "result": 22.2, "unit": "nM"}, {"measurement": "Kd", "setting": "HLA-A*33:01; [1]", "result": "≥ 77700", "unit": "nM"}, {"measurement": "Kd", "setting": "HLA-A*03:01; [1]", "result": 3.18, "unit": "nM"}]}
{"sequence": "RQTVSRFKK", "values": [{"measurement": "Kd", "setting": "HLA-A*31:01; [2]", "result": 13.1, "unit": "nM"}, {"measurement": "Kd", "setting": "HLA-A*68:01; [2]", "result": 4630, "unit": "nM"}, {"measurement": "Kd", "setting": "HLA-A*11:01; [2]", "result": 40.7, "unit": "nM"}, {"measurement": "Kd", "setting": "HLA-A*33:01; [2]", "result": 6560, "unit": "nM"}, {"measurement": "Kd", "setting": "HLA-A*03:01; [2]", "result": 39.7, "unit": "nM"}]}
{"sequence": "RWLWGFLSR", "values": [{"measurement": "Kd", "setting": "HLA-A*31:01; source organism: Dengue virus 1 Singapore/S275/1990", "result": 1.45, "unit": "nM"}]}
{"sequence": "SLRTTTVSGK", "values": [{"measurement": "Kd", "setting": "HLA-A*03:01; [4]", "result": 5.78, "unit": "nM"}]}
{"sequence": "SSMINGVVK", "values": [{"measurement": "Kd", "setting": "HLA-A*11:01; [4]", "result": 12.9, "unit": "nM"}]}
{"sequence": "TIGTTHFQR", "values": [{"measurement": "Kd", "setting": "HLA-A*31:01; [5]", "result": 14.3, "unit": "nM"}, {"measurement": "Kd", "setting": "HLA-A*68:01; [5]", "result": 18.4, "unit": "nM"}]}
{"sequence": "TLFVEECLR", "values": [{"measurement": "Kd", "setting": "HLA-A*68:01; [6]", "result": 30.1, "unit": "nM"}, {"measurement": "Kd", "setting": "HLA-A*33:01; [6]", "result": 86.3, "unit": "nM"}]}
{"sequence": "TTAKEVALLR", "values": [{"measurement": "Kd", "setting": "HLA-A*68:01; [6]", "result": 73.3, "unit": "nM"}]}
{"sequence": "VASAGISYK", "values": [{"measurement": "Kd", "setting": "HLA-A*11:01; [6]", "result": 37.4, "unit": "nM"}, {"measurement": "Kd", "setting": "HLA-A*03:01; [6]", "result": 28.4, "unit": "nM"}]}
{"sequence": "VQTKPGIFK", "values": [{"measurement": "Kd", "setting": "HLA-A*11:01; [7]", "result": 435, "unit": "nM"}, {"measurement": "Kd", "setting": "HLA-A*03:01; [7]", "result": 274, "unit": "nM"}]}
{"sequence": "VTEFRRTAIH", "values": [{"measurement": "Kd", "setting": "HLA-A*31:01; [8]", "result": 10700, "unit": "nM"}, {"measurement": "Kd", "setting": "HLA-A*68:01; [8]", "result": 15300, "unit": "nM"}, {"measurement": "Kd", "setting": "HLA-A*33:01; [8]", "result": 5850, "unit": "nM"}, {"measurement": "Kd", "setting": "HLA-A*03:01; [8]", "result": "≥ 33100", "unit": "nM"}]}
{"sequence": "WTLMYFHRR", "values": [{"measurement": "Kd", "setting": "HLA-A*31:01; [5]", "result": 1.49, "unit": "nM"}, {"measurement": "Kd", "setting": "HLA-A*33:01; [5]", "result": 6.56, "unit": "nM"}]}
